This is an account of results in patent US20240076386A1 (Pfizer, published 2024).

Positions count from the first letter of the chain named.

The chains are these.
B1: anti-E-selectin antibody 0180 chimera (antibody, human IgG1, kappa, V domains shown)
VH: EVQLQQSGAELGKPGTSVKLSCKVSGYKIRSSYMHWVNQRPGKGLEWIGRIDPANGNTIYGDKFKSKATLTSDTSSNTAYIQLSQLKSDDTAIYFCAIDIGTTFDYWGQGVMVTVSS
VL: DIQMTQSPSFLSASVGDRVTINCKASQHINRYLNWYQQKLGEAPKLLIYDANNLQTGIPSRFSGSGSGTDFTLTISSLQPEDVATYFCLQHNSWPNTFGAGTKLELKR
notes: rat VH/VL on effector-null human IgG1 and human kappa
B2: anti-E-selectin antibody 0164 chimera (antibody, human IgG1, kappa, V domains shown)
VH: EVQLQQSGAEFGKPGTSVKLSCKVSGYNIRSSYMHWVNQRPGKGLEWIGRIDPANGNTIYAEKFKIKAILTADSSSNTAYMQLSQLKSDDTAIYFCAMDLYSTSEYWGQGVMVTVSS
VL: B1 VL with A25T, H28N, D50N, N53S, G64A, S76N, H91D, N96L, A100S, L106I
notes: as for B1
B3: anti-E-selectin antibody 0159 chimera (antibody, human IgG1, kappa, V domains shown)
VH: EVQLQQSGAELGKPGTSVKLSCKVSGYNIRSTYMHWVSQRPGKGLEWIGRIDPANGNTIYAEKFKRKATLTADTSSNTAYMQLSQLKSDDRAIYFCAMEVRVSFEYWGQGVMVTVSS
VL: DIQMTQSPSFLSASVGDRVTINCKASQNINKYLDWYQQKLGEGPKLLIYYTNNLHTGIPSRFSGSGSGTDFTLTISSLQPEDVATYFCLQHDSGYTFGAGTKLELKR
notes: as for B1
B4: anti-E-selectin antibody 0170 chimera (antibody, human IgG1, kappa, V domains shown)
VH: EVQLQQSGAELGKPGTSVKLSCKVSGYSIRSTYMHWVNQRPGKGLEWVGRIDPANGNTIYAERFKNKATLTADTSSNTAYMQLSQLKSDDTAIYFCAVEILGIFDYWGQGVMVTVSS
VL: B3 VL with N30D, G43A, I48M, Y50N, N53S, D92N
notes: as for B1
B5: anti-E-selectin antibody 0158 chimera (antibody, human IgG1, kappa, V domains shown)
VH: QVQLKESGPGLVQPSETLSLTCTVSGFSISTYNVHWLRQPPGKGLEWMGMMWSGGSPDYNSALKSRLSISRDTSKNQVFLKMNSLQSEDTTTYYCARWGGGFDYWGQGVMVTVSS
VL: DIVLTQSPTTLSVTPGETVSLSCRASHSIGTNLHWYQQKTNESPRLLIKFTSQSISGIPSRFSASGSGTDFTLNINNVEFDDVSSYFCQQTQSWPLTFGSGTKLEIKR
notes: as for B1
B6: humanized anti-E-selectin antibody 0841 (antibody, human IgG1, kappa, V domains shown)
VH: EVQLVESGGGLVQPGGSLRLSCAASGYNIRSSYMHWVRQAPGKGLEWVARIDPANGNTIYAEKFKIRFTISADNAKNSAYLQMNSLRAEDTAVYYCAMDLYSTSEYWGQGTLVTVSS
VL: DIQMTQSPSSLSASVGDRVTITCKTSQNINRYLNWYQQKPGKAPKLLIYNANSLQTGVPSRFSGSGSGTDFTLTISSLQPEDFATYFCLQDNSWPLTFGQGTKVEIKR
notes: effector-null human IgG1, kappa
B7: optimized anti-E-selectin antibody 1282 (antibody, human IgG1, kappa, V domains shown)
VH: B6 VH with N28A, S32A, A61V, E62D, K63S, F64V, K65E, I66G
VL: B6 VL with N30E, N50A, N52S, T56S, S93A
notes: as for B6
B8: optimized anti-E-selectin antibody 1284 (antibody, human IgG1, kappa, V domains shown)
VH: B6 VH with N28A, S32A, A61V, K63S, F64V, K65E, I66G
VL: B6 VL with N30E, N50A, N52S, T56S, S93A
notes: as for B6
B9: optimized anti-E-selectin antibody 1448 (antibody, human IgG1, kappa, V domains shown)
VH: B6 VH with N28A, S32A, A61V, E62D, K63S, F64V, I66E
VL: B6 VL with N30E, N50A, N52S, T56S, S93A
notes: as for B6
B10: optimized anti-E-selectin antibody 1444 (antibody, human IgG1, kappa, V domains shown)
VH: B6 VH with N28A, S32A, A61V, E62D, K63S, F64V, K65T, I66G
VL: B6 VL with N30E, N50A, N52S, T56S, S93A
notes: as for B6

The first assay addresses T1, human P-selectin expressed on CHO cells (human, UniProt P16109 42-830).
T1 construct: whole, on cells; also called CHO-human P-selectin cells; CHO-P-selectin cells
T1 sequence (looked up): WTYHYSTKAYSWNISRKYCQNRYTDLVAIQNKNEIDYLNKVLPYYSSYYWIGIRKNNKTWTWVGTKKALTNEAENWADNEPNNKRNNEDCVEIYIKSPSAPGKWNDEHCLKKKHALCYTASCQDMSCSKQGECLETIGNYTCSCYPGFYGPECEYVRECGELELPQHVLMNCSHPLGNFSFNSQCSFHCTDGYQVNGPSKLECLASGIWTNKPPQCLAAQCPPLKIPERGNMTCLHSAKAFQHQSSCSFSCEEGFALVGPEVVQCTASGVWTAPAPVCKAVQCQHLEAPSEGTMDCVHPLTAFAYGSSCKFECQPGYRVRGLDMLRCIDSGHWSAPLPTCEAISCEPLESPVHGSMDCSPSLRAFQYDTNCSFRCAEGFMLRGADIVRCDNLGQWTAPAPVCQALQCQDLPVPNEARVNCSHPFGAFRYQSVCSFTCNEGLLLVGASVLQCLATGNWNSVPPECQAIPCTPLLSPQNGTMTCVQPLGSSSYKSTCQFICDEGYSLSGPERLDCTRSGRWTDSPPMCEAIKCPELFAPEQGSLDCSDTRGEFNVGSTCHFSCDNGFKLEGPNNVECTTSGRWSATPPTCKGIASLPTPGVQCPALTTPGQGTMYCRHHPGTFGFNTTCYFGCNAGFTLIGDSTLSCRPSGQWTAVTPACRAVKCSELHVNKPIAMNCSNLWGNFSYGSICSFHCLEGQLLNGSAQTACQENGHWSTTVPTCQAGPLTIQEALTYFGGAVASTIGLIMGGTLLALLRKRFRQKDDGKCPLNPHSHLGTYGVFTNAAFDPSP
Kind of assay: flow cytometry, CHO cells. Here is the method: Cells were maintained in growth medium at 37° C., 5% CO₂ and 95% air in a humidified incubator. Methotrexate or Zeocin were removed from the medium prior to culture for experiments. CHO-E selectin cells or P-selectin cells were detached from T-150 flasks using citric saline (135 mM KCl, 15 mM sodium citrate) and immediately re-calcified with the addition of CaCl₂) to the detached cells to a final concentration of 1 mM. Growth media was immediately added to the detached cells, then centrifuged at 300×g for 5 minutes at room temperature to pellet the cells. Cells were plated into 96-well V-bottom plates in cold CHO buffer consisting of phosphate buffered saline (PBS), pH 7.4 containing bovine serum albumin (BSA; Sigma-Aldrich) at final concentration of 1%, calcium chloride at final concentration of 1 mM, and sodium azide at a final concentration of 0.1%, for 5 minutes on wet ice. After incubation, the cells were centrifuged at 300×g for 2 minutes at 4° C. to remove the buffer.
After incubation, antibodies were removed and the cells were washed three times by centrifugation at 300×g for 1 minute at 4° C. and resuspended in cold CHO buffer. The washed cells were incubated for 30 minutes on wet ice with 100 μL of a 1:1000 dilution of APC-conjugated AffiniPure F(ab′)₂ Fragment Goat Anti-human IgG, Fcγ (Jackson Imnnunoresearch). The cells were washed three or four times prior to resuspension in CHO buffer for flow cytometric analysis. A Becton Dickinson LSRFortessa instrument using 640 nanometer laser line was used to acquire cell fluorescence data. Geometric mean fluorescence of cells was analyzed by FlowJo software package (FlowJo, LLC) and plotted against antibody concentration. The estimated EC₅₀ values were calculated using nonlinear regression analysis in the Prism suite (GraphPad, version 8) (Table 8).
(In general: Flow cytometry measures light scatter and fluorescence of single cells or particles in a stream.)
With B1, the binding result was “no binding”.

Turning to B2, the binding result is recorded as “no binding”.

With B3, the binding result was “no binding”.

On to B4, for which the binding result is listed as “no binding”.

With B5, the binding result is “no binding”.

The target of the next assay is T2, soluble recombinant human P-selectin (human, UniProt P16109 42-771, limits assumed).
T2 sequence (looked up): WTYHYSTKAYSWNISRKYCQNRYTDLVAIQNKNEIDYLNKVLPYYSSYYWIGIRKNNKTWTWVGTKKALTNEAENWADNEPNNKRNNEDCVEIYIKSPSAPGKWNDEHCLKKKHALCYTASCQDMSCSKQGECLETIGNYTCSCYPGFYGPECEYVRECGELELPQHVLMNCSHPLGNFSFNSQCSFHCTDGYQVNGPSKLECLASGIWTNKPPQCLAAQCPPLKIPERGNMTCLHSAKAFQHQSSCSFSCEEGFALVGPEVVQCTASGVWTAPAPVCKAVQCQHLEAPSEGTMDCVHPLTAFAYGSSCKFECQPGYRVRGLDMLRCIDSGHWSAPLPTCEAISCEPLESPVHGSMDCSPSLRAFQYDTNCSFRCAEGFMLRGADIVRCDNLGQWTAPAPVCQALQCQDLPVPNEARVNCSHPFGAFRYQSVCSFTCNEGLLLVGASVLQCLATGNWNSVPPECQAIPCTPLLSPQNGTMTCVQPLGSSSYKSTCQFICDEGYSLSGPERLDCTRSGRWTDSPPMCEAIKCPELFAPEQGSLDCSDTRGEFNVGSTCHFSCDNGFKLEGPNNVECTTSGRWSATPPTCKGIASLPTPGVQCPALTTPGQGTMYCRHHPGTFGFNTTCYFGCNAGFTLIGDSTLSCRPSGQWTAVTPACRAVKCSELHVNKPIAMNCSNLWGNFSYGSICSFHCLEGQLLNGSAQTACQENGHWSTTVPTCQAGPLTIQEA
Kind of assay: direct binding ELISA on immobilized human P-selectin, absorbance at 450 nm. The procedure: Recombinant histidine tagged human P-, E- or L-selectin (Sino Biologicals), mouse E-selectin (Sino Biologicals), rat E-selectin (Sino Biologicals) and Cynomolgus monkey E-selectin (Sino Biologicals) stock solutions were prepared to a final concentration of 1 μg/mL in phosphate buffered saline without calcium and magnesium. Controls included an L-selectin directed antibody (BioLegend; 304811) or P-selectin directed antibody or a negative control IgG. One hundred μL per well of the diluted recombinant selectin proteins were added into a Ni-NTA HisSorb 96 well plate (Qiagen; 35061). Plates were incubated on an orbital shaker at room temperature for 2 hours. Following the incubation, the plates were washed 3 times with 200 μL of wash buffer (50 mM TRIS [trisaminomethane]; 150 mM sodium chloride; 0.05% polysorbate 20, pH 7.4). To decrease nonspecific binding, plates were treated with 200 μL of blocking buffer (BD Opteia buffer; 555213; BD Biosciences), incubated on an orbital shaker for 1 hour at room temperature and washed as described above. […] One hundred μL specific detection antibodies (described below) were added and incubated for 1 hour: [0556] […] Anti L-selectin and anti-rat-E-selectin antibodies were detected using 1 to 25000 dilution of Peroxidase-conjugated AffiniPure Goat Anti-Mouse IgG (H+L); (Jackson ImnnunoResearch Lab).
Plates were washed and 100 μL per well of 1-Step Ultra TMB substrate (Thermo Scientific) was added and incubated for 5 minutes at room temperature. Reactions were stopped with 100 μL of 2 M sulfuric acid and absorbance read at 450 nm (Spectramax M5e).
On the technique in general: An ELISA detects its analyte on a solid surface through an enzyme-linked reagent.
Take B6: the binding result was “no binding (tested: 10 ug/ml)”.

As for B7, the binding result is given as “no binding (tested: 10 ug/ml)”.

For the molecule B8, the binding result is given as “no binding (tested: 10 ug/ml)”.

On to B9, for which the binding result is given as “no binding (tested: 10 ug/ml)”.

Consider B10, for which the binding result was “no binding (tested: 10 ug/ml)”.
